# Assay: soluble on expression in E. coli; label from the status in PepcDB or PDB records
row,Sequence,soluble on expression in E. coli
1,MSLTYYDDIRKVQDLHLPWEILTDINILIVGASGLIGRALVDTLMQLPDKTFHLYAGVRDLVYAQSCFMRYKDDESFTLIQCDVTALIPFDIDFHYIIHAASYAGPAAFHNDPVGVMKANILGVDNLFSYGEQHNLRRLLYVSSGEVYGEGNGIPFREEDSGSLDWASLRACYPAAKRTAETLCIAYAAQFQIETVIARPCHIYGPFYTSKDDRAYAQFIRNVLAGENIILRSSGLQQRSWCYVVDCVFALLYVLLKGKTKNAYNIADVRSNVSIREFAEMIALKSEREVIFDLPDNTGKNKPIISQAIFNTEKINKIGWFPQWKLEEGVSHTLNTLISVDGTYEGHITITTDPNSSSVDKLAAALEHHHHHH,soluble
2,MSLVAFHEVRFPLRLALGVSGGPVRRTDIVNLSNGRENRNQRWRNARRAYDAGSGIRSVADLYEVLAFFEARRGEMYGFRFRDPVDFKSCPPGETPAATDQRIGTGDGVVTGFQLVKTYADAGGSFSRRIDKPVEGSVIVSVEGVKAAPTDLSVDHATGMVIFRAGRAPPTGAVIRAGFEFDVPVRFAIDRIDINVTAFEAGRIPSIPLMEILPEGHHHHHH,soluble
3,MSLVDTEIWLRLMSISSLYGDDMVRIAHWLARQSHIDAVVLQQTGLTLRQAQRFLSFPRKSIESSLCWLEQPNHHLIPADSEFYPPQLLATTDYPGALFVEGELHALHSFQLAVVGSRAHSWYGERWGRLFCETLAKHGVTITSGLARGIDGVAHKAALQVNGVSIAVLGNGLNTIHPRRHARLAASLLEQGGALVSEFPLDVPPLAYNFPRRNRIISGLSKGVLVVEAALRSGSLVTARCALEQGREVFALPGPIGNPGSEGPHWLIKQGAILVTEPEEILENLQFGLHWLPDAPENSFYSPDQEDVALPFPELLANVGDEVTPVDVVAERAGQPVPEVVTQLLELELAGWIAAVPGGYVRLRRACHVRRTNVFVEGHHHHHH,soluble
4,MSLVEELLKITLKSDELHRRLGGGIPAGTIMLIEGDRGTGKSILSQRLLYGFLMNGYTSSYVSSQYTTVEYIKQMMSISYDVIPFLIRKKLVFVSLYPLLSGVSEERKFLSRLLGEPRLWDQDVVIIDSFSSVLSREQDVRAVRNFLMYIKKLSSLGKVIILTANPEELSRDVMFLLEEASTLLIRLNVRVFGGDLKNSATIVKYNNAKGAFQKIIPFRVEPKVGLVVEIAAVVEGHHHHHH,soluble
5,MSLVLIQGAGIAGLALAREFTKAGIDWLLVERASEIRPIGTGITLASNALTALSSTLDLDRLFRRGMPLAGINVYAHDGSMLMSMPSSLGGNSRGGLALQRHELHAALLEGLDESRIRVGVSIVQILDGLDHERVTLSDGTVHDCSLVVGADGIRSSVRRYVWPEATLRHSGETCWRLVVPHRLEDAELAGEVWGHGKRLGFIQISPREMYVYATLKVRREEPEDEEGFVTPQRLAAHYADFDGIGASIARLIPSATTLVHNDLEELAGASWCRGRVVLIGDAAHAMTPNLGQGAAMALEDAFLLARLWCLAPRAETLILFQQQREARIEFIRKQSWIVGRLGQWESPWSVWLRNTLVRLVPNASRRRLHQRLFTGVGEMAAQEGHHHHHH,not soluble
6,MSLVLPSGAFTLKNVTVPAAIFGQRGDLISTDIGIVDGQISAPGGKVIEMAEAMVLPAFVDCHTHLDKGHILPRAQNPDGTFVGALTSVREDHLNWTSKDVRTRADFSIRCAYAHGTRAIRTHVDSMNGQYKRSWPVFAGLREKWANKVELQMTSLITCESYGMPEYAEIAATVAHFDGVLGMVSFPMPDLKKVLLSHFETAGNLGLALDFHTDETMDPSSETLRVIAECVMETGFCGRVLVGHCCSLSQQEENLAMDTLDLVAKAKIDVVSLPMCNLYLQDRHAGRTPRGRGVTLVHEMKARGINVSFASDNTRDPFYAYGDMDMLEVMRMATRIAHLDHSDFDWVKSFSQTPAEVCDFPDLSLAHGTTADLVIFNARNWNELYSRPQSDRIVLRNGIAIDRKLPSYSELDALLEAYKEGHHHHHH,soluble
7,MSLVLQMKSGGVVSDARTELDTQRLAKYIGGKHALVAQGGGQRGIFTAGVLDAFLLSNFDPYHEFYGTSAGALNLCAFLSRQTGLSKAFILELTTRAEFFHLFSYIRRKQYMNMQWALDRIGEYPYRLDLDMARQALGKRKAYAAVTSADDLKDAYFPMLGADWQQVLLATCAIPGLYPEPVTLAGKQYIDGGVSASIPVQEAWRKEARFITVIRTEFMSKEEETPSPSATELPLWLREPLNHLQHQLQHKWSGWRQEWNEFLQQQKLRAKEQKKEQKHLDALNGGRWLFGADDIYRLSHLLGSKFDAGLADLLMVHYQTYTLTSEFLDAHHDDTFIAQIMPSEPLHSNSLLSSPEALQYDYELGLKAGYRFLKAYSEAETFRKEGHHHHHH,soluble
8,MSLVMGQEKLYIEKELSWLSFNERVLQEAADKSNPLIERMRFLGIYSNNLDEFYKVRFAELKRRIIISEEQGSNAHSRHLLGKIQSRVLKADQEFDGLYNELLLEMARNQIFLINERQLSVNQQNWLRHYFKQYLRQHITPILINPDTDLVQFLKDDYTYLAVEIIRSDSIRYALLEIPSDKVPRFVNLPPEAPRRRKPMILLDNILRYCLDDIFKGFFDYDALNAYSMKMTRDAEYDLVHEMEASLMELMSSSLKQRLTAEPVRFVYQRDMPNALVEVLREKLTISRYDSIVPGGRYHNFKDFINFPNVGKANLVNKPLPRLRHIWFDKAQFRNGFDAIRERDVLLYYPYHTFEHVLELLRQASFDPSVLAIKINIYRVAKDSRIIDSMIHAAHNGKKVTVVVELQARFDEEANIHWAKRLTEAGVHVIFSAPGLKIHAKLFLISRKENGEVVRYAHIGTGNFNEKTARLYTDYSLLTADARITNEVRRVFNFIENPYRPVTFDYLMVSPQNSRRLLYEMVDREIANAQQGLPSGITLKLNNLVDKGLVDRLYAASSSGVPVNLLVRGMCSLIPNLEGISDNIRAISIVDRYLEHDRVYIFENGGDKKVYLSSADWMTRNIDYRIEVATPLLDPRLKQRVLDIIDILFSDTVKARYIDKELSNRYVPRGNRRKVRAQLAIYDYIKSLEQPEEGHHHHHH,soluble
9,MSLVMSMANKREPAPGWPIVSGEYVVGNPESCVGVVTLGSHGLEQACIDAGAAIAGPCHTENLGIEKVVANYISNPNIRFMILCGSEVQGHITGQCFKALWENGIGDDGGIIGAKGAIPFLENVNKEAVERFRRQIVEVVDLIDCEDIGKITQAIKECLSKDPGAIDEDPFIIELEGGKGGGEEEEGVIKPITPEMAIIESRMRLIGNEMCYNGLLAKWQAGYYNGKEGHHHHHH,not soluble
10,MSLVNQLSLFIDVVQQGSFTKAAALHDMDNSALSKQIKKLEAELGVQLLNRSTRTFSLTPAGEEILEQAYQLVGSLDNVKSIADSYQAVPKGRIRITAPLHIGQGYLQPVISQFMTTYPDVEVVLMMDDKRSDIISEHFDVAFRLGRLDDSSLIAKKVADIRGVILASHSLIERFGEPSTPEELVNLPSVIYSNGTLTVDTVRLGESPDSSQFKSYKMKGNYKVNDVRTLLSAVQDGLGYAVVASSNLERSIESMGLTTLLTDYPLCNQGLAIYALYPHRKQTALVREFISAVQKHIGHPPLWEQHIPNFASLYPVKKGQ,not soluble
11,MSLVSGFSVTLGEATSSNPSYKSAVMDYFKAKTDKDLQSADIKIVTASEVNEVSRGVTGRVYSPSQILSCAMVDLSYSDGIKVSVDTSKIRVVTPEMYASALRSSGIDRGYVVVTSPVPASGEAALAGVLKSYEIAVGEQIPEEAKRVSVEEIYLQSRLVNETNATGDRVAELFDEVKNRTQSQNLQDPADIQRVVVDVSQQMNINLTETQVQQVADSVAASQRVQGSLTEFKQRLEGVSQQVGGSGILDQIYAFLQSIYNYIMGIASPEGHHHHHH,soluble
12,MSLWKNFNFVTKYFTKRRQRYITKTIAMNQQEFQLREITYQDIKDLLAIEREVYAGELPWTMSAFMAELGSKAPHLYLLAAINGKTVGFIGCRIQGTDAHITNVAVHTAYQGLGLGRSLIEETRIFAKKNRCETLSLEVRMSNVKAQRLYRKIGFVSQTVKKGYYDENNEDALEMIIDLKEEEGHHHHHH,soluble
13,MSLYGRHTISIILREIFRLMDYPSIDTLLESAHIVTLPMKYPFMGLSERQAVLFEGPNSWAEYSPFMGCNDTRMWLASAIEYGWGNTNVLSVPNLDLDNTNFASRSKYGYIANPQTSNKDHSDNKRFYTQTKNHREIPVNAILPDIPASKMSEILGKDLQGCKCVKIKVGKHFQDRDIHRIRAVLDFMGADTMLRLDANCKWNVSETLNNLDVLEDNDLLENVSYIEQPCRTTRELITLKQKMDTRGYVTKIAIDESLRDLLLHWQKNRKWSNNSGITYTTELRETLSACDMLVLKLQPMGGMRAVADLLESIKNNIKVNVGYTVSSSLETSLGIEMGLALALNLPNITLPVGLATAGLLDADITDDPLLPNKGYITPRKIEVNKKLLNRYAADKRHVVWWHRRIRAAHRALFQDLSDEGHHHHHH,not soluble
14,MSLYHYFRPAQRSVFGDLMRDMAQMERQFTPVCRGSPSESSEIVNNDQKFAINLNVSQFKPEDLKINLDGHTLSIQGEQELKTEHGYSKKSFSRVILLPEDVDVGAVASNLSEDGKLSIEAPKKEAIQGRSIPIQQAPVEQKTSE,not soluble
15,MSLYKDDSLTLHTDLYQINMMQVYFEQGIHNRHAVFEVYFRKEPFNNGYAVFAGLQRMVEYLEQFQFSETDLAYLEELGYPENFLTYLKELRLELTIRSAKEGDLVFANEPIVQVEGPLGQCQLVETALLNIVNFQTLIATKAARIRSVIEDEPLLEFGTRRAQELDAAIWGTRAAMIGGADATSNVRAGKRFDIPVSGTHAHALVQAYGNDYDAFMAYAKTHKDCVFLVDTYDTLKVGVPTAIRVAKEMGDKINFLGVRLDSGDLAYLSKTVRQQLDDAGFTEAKIYASNDLDENTILNLKMQKAKIDVWGVGTKLITAYDQPALGAVYKIVSIEQEDGSMRDTIKLSNNAEKVSTPGKKQVWRITSREKGKSEGDYITFTDINVNELTEIEMFHPTYTYIKKTVKEFDAIPLLVDIFVKGELVYQLPTLAEIKAYAKKEFDKLWDEYKRVLNPQDYPVDLARDVWQNKMALIDNIRKDAYGKSEEGHHHHHH,soluble
16,MSLYKDDSLTLHTDLYQINMMQVYFNQGIHNKRAVFEVFFRKEPFANGYAVFAGLERMIAYLQGLSFSETDIAYLEELGYPADFVAYLKEFKLELSVKSAKEGDLVFANEPIVQIEGPLAQCQLVETAILNIVNFQTLIATKAARIRSVIEDEPLLEFGTRRAQEMDAAIWGTRAAVIGGANATSNVRAGKLFGIPVSGTHAHALVQAYGNDYDAFMAYAGTHKDCVFLVDTYDTLRLGVPAAIRVASELGDKINFLGVRIDSGDMAYLSKKVRKLLDEAGYPHAKIYASNDLDENTILNLKMQKAKIDIWGVGTKLITAYDQPALGAVYKIVSIEDDNGVMQDTIKLSNNAEKVSTPGKKQVWRITSRAKGKSEGDYITFTDTDVNSLDEIDMFHPTYTYINKKVRDFDAVPLLVDIFDQGKLVYTQPSLSDIQDYARREFDKLWDEYKRVLNPQDYPVDLACDVWQNKVNLIDRIRKEAYEKGDVKEGHHHHHH,soluble
17,MSLYKLYSMQRSGNSYKVRLALALLDAPYRAVEVDILRGESRTPDFLAKNPSGQVPLLETAPGRYLAESNAILWYLAVGTSLAPDTRMDRAEALQWMFFEQHALEPNIGSAYFWLCLVKGGRDLQTHALEDWLERGYAALQVMENHLKTNDYFAAGQLTIADIALYGYTHVADQCDFDLSTFPAVNAWLRRVEQTPGFITMDWTPETIAADPTSFAAEGHHHHHH,soluble
18,MSLYKVYGDYRSGNCYKIKLMLNLLGLPYEWQAVDILGGDTQTEAFLAKNPNGKIPVLELEDGTCLWESNAILNFLADGSQFLPSEPRLRTQVLQWQFFEQYSHEPYIAVARFIQLYEGLPEERREEYLKLHKRGYKALDVMEKQLSRTPYLVGEHYSIADIALYAYTHVADEGGFDLSRYPGIQAWMQRVQSHPRHVPMLDEGHHHHHH,soluble

# Reference: the DeepSol protein solubility set
